Laboratory results: patent US20250066490A1 (PROFOUNDBIO US, published 2025)

Assays:
[1] = molecular target: T1, human CD70 expressed on the cell surface of tumor cell lines (human, UniProt P32970 1-193); test: flow cytometry on DBTRG-05MG cells
T1 construct: whole, on cells
T1 sequence (looked up): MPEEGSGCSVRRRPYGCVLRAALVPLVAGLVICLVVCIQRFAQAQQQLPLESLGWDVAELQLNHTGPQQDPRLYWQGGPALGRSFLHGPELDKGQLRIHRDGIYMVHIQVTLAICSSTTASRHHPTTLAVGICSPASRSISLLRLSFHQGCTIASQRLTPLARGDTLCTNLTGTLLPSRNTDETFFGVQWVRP
Procedure: (§1) The lead antibodies were tested for binding to renal carcinoma cells and glioblastoma cells expressing CD70 on the cell surface by flow cytometry. […] U251 cells were cultured with MEM medium containing of 10% FBS and 1% NEAA+1 mM sodium pyruvate. DBTRG-05MG cells were cultured with DMEM medium (Gibco, Cat #C11995500BT) containing of 10% FBS. Each of the lead antibodies and the controls were incubated for 30 mins with the different cell lines (3×10⁵ cells per well) in 0.2 ml FACS buffer (1×PBS with 0.1% BSA) at 4° C. Then, the cells were pelleted, washed, and incubated at 4° C. for 30 mins with 100 μl of 1:200 diluted PE-conjugated anti human Fc (Abcam, Ab98596) in FACS buffer. The cells were pelleted again, washed with PBS, resuspended in FACS buffer and analyzed by flow cytometer (Beckman, CytoFLEX).
(§2) Antibodies 2H8 and 2D2 had slightly higher binding ability to the cell lines than that of antibody 69A7.

[2] = molecular target: T1, human CD70 expressed on the cell …; test: flow cytometry on Raji cells, PE anti-human Fc, MFI(PE); the text gives this EC50 only as about 19 nM
Procedure: Binding activity of 2E7 or the isotype control with a target cell line (Raji) or a cell line (MCF-7) that has negligible level of CD70 expression were evaluated by flow cytometry (Beckman, Cytoflex). 3×10⁵ cells per well were seeded on a 96-well V-bottomed plate and incubated with 100 μl of 2E7 in serial dilutions. After 30 min incubation at 4° C., cells were washed twice with PBS, stained with 100 μl of 1:200 diluted PE-conjugated anti-human Fc in FACS buffer (1×PBS containing 1% BSA), then incubated at 4° C. for 30 min. Cells were finally washed two times with PBS and analyzed by flow cytometric analysis.

[3] = molecular target: T1, human CD70 expressed on the cell …; test: cell-based or functional assay
[4] = molecular target: T2, human CD70 recombinant protein (human, UniProt P32970 39-193, limits assumed); test: ELISA, IgG titrated on coated human CD70 recombinant protein (2 µg/ml), anti-human Fc-HRP, OD450
T2 construct: May be the same reagent as ACRO CDL-H5246; also called CD70 protein
T2 sequence (looked up): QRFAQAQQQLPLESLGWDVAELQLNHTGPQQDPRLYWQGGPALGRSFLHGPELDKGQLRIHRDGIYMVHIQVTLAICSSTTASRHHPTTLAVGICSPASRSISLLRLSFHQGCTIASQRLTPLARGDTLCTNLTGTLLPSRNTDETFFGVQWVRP
Procedure: The binding specificity of the CD70 antibodies was tested by ELISA according to a standard protocol. Briefly, 96-well micro-plates were coated with 2 μg/ml of human or cynomolgus CD70 recombinant protein in PBS at 100 μl per well and incubated overnight at 4° C. The plates were washed twice with TBS+0.5% Tween20. 200 μL of blocking buffer (2% BSA in PBS) was added to each well, and the plates were incubated at 37° C. for 2 hours. The plates were washed using the wash buffer mentioned above. Serially diluted antibodies were added to the ELISA plates using 100 μl per well, and the plates were incubated for 1 hour at room temperature. Then plates were washed 3 times. HRP conjugated anti-human Fc antibody solution (Sigma, I18885-2ML, diluted with blocking buffer) was added to the plates using 100 μl per well. The plates were incubated at room temperature for 1 hour and then washed 3 times. Then the TMB solution was added to plates using 100 μl per well and the plates were placed at RT for 5-15 mins. Then the stop solution (2M H2SO4) was added using 50 μl per well. The absorbance was measured at A450 and A630.

[5] = molecular target: T1, human CD70 expressed on the cell …; test: flow cytometry on DBTRG-05MG cells, PE anti-human Fc, MFI; same fit as Table 6, which prints it in nM
Procedure: as §1, §2

[6] = molecular target: T3, human CD70 extra-cellular domain (ECD) linked to His tag (human, UniProt P32970 39-193); test: BLI (Octet RED), antibody on anti-human Fc tips, CD70 ECD-His at 100 nM
T3 construct: extracellular domain; also called Hu CD70; HU CD70; not shown: His tag
T3 sequence (looked up): T2 sequence (looked up)
Procedure: Recombinant proteins consisting of human, rat, or mouse CD70 extra-cellular domain (ECD) linked to His tag was purchased (from ACRO systems). 69A7 and 2E7 (20 nM) were immobilized on anti-human IgG Fc biosensor tips (ForteBio). Binding assays using one concentration (100 nM) of recombinant protein in solution were performed using Octet RED (ForteBio). Association time was set at 180s and dissociation time was set at 300s. Binding affinity was calculated using ForteBio Data Acquisition 6.3 software. Affinity was derived by fitting the kinetic data to a 1:1 Langmuir binding model utilizing global fitting algorithms. […] 2E7 had no cross-reactivity to rat or mouse CD70 (Table 10).

EC50 [1]: 6.11 nM
EC50 [2]: 2.98 µg/mL
Internalization rate (%) on 786-O [3]: 62%
Internalization rate (%) on Caki-1 [3]: 51%
EC50 [4]: 0.0161 µg/mL
EC50 [5]: 0.917 µg/mL
Kd [6]: 0.979 nM
koff [6]: 0.000357 s⁻¹
kon [6]: 365000 M⁻¹ s⁻¹
B1: 2E7, full IgG (antibody, V domains shown)
VH: QVQLQESGPGLVKPSETLSLTCTVSGGSVSSDYYYWSWIRQPPGKGLEWLGYIYYSGSTNYNPSLKSRVTISVDTSKNQFSLKLRSVTTADTAVYYCARGDGDFLGVCFDYWGQGTLVTVSS
VL: EIVLTQSPATLSLSPGERATLSCRASQSVSSYLAWYQQKPGQAPRLLIFDASNRATGIPARFSGSGSGTDFTLTISSLEPEDFAVYYCQQRSNWPLTFGGGTKVEIK
